From patent US11795460B2, “Compositions and methods for TTR gene editing and treating ATTR amyloidosis” (Intellia Therapeutics, Inc., priority 2017, dated 2023)
Strand notation (5' to 3'): a small letter for the sugar, then the base; units joined by * are phosphorothioate-linked, units joined directly phosphodiester-linked; [ ] holds rarer units or linkages, { } end groups; capitals alone tell only the bases. m = 2'-O-methyl; r = 2'-OH (RNA)

Assays:
TTR [1] = experiment: TTR editing in primary human hepatocytes transfected with Spy Cas9 protein and sgRNAs (Table 12); assay type: cell-based; conditions: primary human hepatocytes transfected with Spy Cas9 protein (RNP) and sgRNAs
Method: (§1) Primary liver hepatocytes. Primary human liver hepatocytes (PHH) and primary cynomolgus liver hepatocytes (PCH) (Gibco) were cultured per the manufacturer's protocol (Invitrogen, protocol 11.28.2012). In brief, the cells were thawed and resuspended in hepatocyte thawing medium with supplements (Gibco, Cat. CM7000) followed by centrifugation at 100 g for 10 minutes for human and 80 g for 4 minutes for cyno. The supernatant was discarded and the pelleted cells resuspended in hepatocyte plating medium plus supplement pack (Invitrogen, Cat. A1217601 and CM3000). Cells were counted and plated on Bio-coat collagen I coated 96-well plates (ThermoFisher, Cat. 877272) at a density of 33,000 cells/well for human or 60,000 cells/well for cyno (or 65,000 cells/well when assaying effects on TTR protein, described further below). Plated cells were allowed to settle and adhere for 6 or 24 hours in a tissue culture incubator at 37° C. and 5% CO2 atmosphere. After incubation cells were checked for monolayer formation and media was replaced with hepatocyte culture medium with serum-free supplement pack (Invitrogen, Cat. A1217601 and CM4000).
[…] formation was performed prior to electroporation or transfection of Spy Cas9 protein loaded with guide RNAs (RNPs) onto cells. For dual guide (dgRNAs), individual crRNA and trRNA was pre-annealed by mixing equivalent amounts of reagent and incubating at 95° C. for 2 min and cooling to room temperature. Single guide (sgRNAs) were boiled at 95° C. for 2 min and cooling to room temperature. The boiled dgRNA or sgRNA was incubated with Spy Cas9 protein in Optimem for 10 minutes at room temperature to form a ribonucleoprotein (RNP) complex.
For RNP lipoplex transfections, cells were transfected with Lipofectamine RNAiMAX (ThermoFisher, Cat. 13778150) per the manufacturer's protocol. Cells were transfected with an RNP containing Spy Cas9 (10 nM), individual guide (10 nM), tracer RNA (10 nM), Lipofectamine RNAiMAX (1.0 μL/well) and OptiMem. RNP formation was performed as described above.
Transfected cells were harvested post-transfection at 24, 48, or 72 hours. The genomic DNA was extracted from each well of a 96-well plate using 50 μL/well BuccalAmp DNA Extraction solution (Epicentre, Cat. QE09050) per manufacturer's protocol. All DNA samples were subjected to PCR and subsequent NGS analyses, as described herein.
(§2) To quantitatively determine the efficiency of editing at the target location in the genome, sequencing was utilized to identify the presence of insertions and deletions introduced by gene editing.
(§3) Primers were designed around the target site within the gene of interest (e.g. TTR), and the genomic area of interest was amplified.
(§4) Additional PCR was performed per the manufacturer's protocols (Illumina) to add chemistry for sequencing. The amplicons were sequenced on an Illumina MiSeq instrument. The reads were aligned to a reference genome (e.g., the human reference genome (hg38), the cynomologus reference genome (mf5), the rat reference genome (rn6), or the mouse reference genome (mm10)) after eliminating those having low quality scores. The resulting files containing the reads were mapped to the reference genome (BAM files), where reads that overlapped the target region of interest were selected and the number of wild type reads versus the number of reads which contain an insertion, substitution, or deletion was calculated.
(§5) The editing percentage (e.g., the “editing efficiency” or “percent editing” or “indel frequency”) is defined as the total number of sequence reads with insertions/deletions (“indels”) or substitutions over the total number of sequence reads, including wild type.
Guides in modified sgRNA format targeting human and/or cyno TTR were delivered to primary human hepatocytes and primary cyno hepatocytes as described in Example 1. […]

TTR [2] = experiment: EC50 and maximum editing in primary human hepatocytes treated with LNP formulated U-depleted Spy Cas9 mRNA and sgRNAs (Tables 19, 21); assay type: cell-based; parameters: key: % of sequence reads with indels or substitutions over total reads; conditions: Table 19, LNP with U-depleted Spy Cas9 mRNA and human specific sgRNAs, dose response
Method: as §1
(§6) For LNPs prepared using the cross-flow technique, the LNPs were formed by impinging jet mixing of the lipid in ethanol with two volumes of RNA solutions and one volume of water. The lipid in ethanol is mixed through a mixing cross with the two volumes of RNA solution. A fourth stream of water is mixed with the outlet stream of the cross through an inline tee. (See WO2016010840 FIG. 2.) The LNPs were held for 1 hour at room temperature, and further diluted with water (approximately 1:1 v/v). Diluted LNPs were concentrated using tangential flow filtration on a flat sheet cartridge (Sartorius, 100 kD MWCO) and then buffer exchanged by diafiltration into 50 mM Tris, 45 mM NaCl, 5% (w/v) sucrose, pH 7.5 (TSS). Alternatively, the final buffer exchange into TSS was completed with PD-10 desalting columns (GE). If required, formulations were concentrated by centrifugation with Amicon 100 kDa centrifugal filters (Millipore). The resulting mixture was then filtered using a 0.2 μm sterile filter. The final LNP was stored at 4° C. or −80° C. until further use.
as §2, §3, §4, §5
(§7) Lipid nanoparticle formulations of modified sgRNAs targeting human TTR and the cyno matched sgRNA sequences were tested on primary human hepatocytes and primary cyno hepatocytes in a dose response curve. Primary human and cyno hepatocytes were plated as described in Example 1. Both cell lines were incubated at 37° C., 5% CO2 for 24 hours prior to treatment with LNPs. […]

TTR [3] = experiment: EC50 and maximum editing in primary cyno hepatocytes treated with LNP formulated U-depleted Spy Cas9 mRNA and sgRNAs (Tables 20, 22); assay type: cell-based, cynomolgus monkey; parameters: key: % of sequence reads with indels or substitutions over total reads; conditions: Table 20, LNP with U-depleted Spy Cas9 mRNA and human specific sgRNAs, dose response
Method: as §1, §6, §2, §3, §4, §5, §7

human TTR sequence = experiment: Liver editing in humanized TTR mice dosed with LNP formulations (Table 26); assay type: in vivo, mouse; conditions: 1, 0.3, or 0.1 mg/kg

B1: G000483: TTR sgRNA modified sequence, Human, SEQ ID No. 90; guide sequence of CR005298 (nucleic acid)
guide: mU*mC*mC*rArCrUrCrArUrUrCrUrUrGrGrCrArGrGrArGrUrUrUrUrArGrAmGmCmUmAmGmAmAmAmUmAmGmCrArArGrUrUrArArArArUrArArGrGrCrUrArGrUrCrCrGrUrUrArUrCrAmAmCmUmUmGmAmAmAmAmAmGmUmGmGmCmAmCmCmGmAmGmUmCmGmGmUmGmCmU*mU*mU*mU
With B1 the “Avg % Deletion” value (TTR [1]) was 28.50%, the “Avg % Edit” value (TTR [1]) was 47.90% and the “Avg % Insert” value (TTR [1]) was 19.57%. The “Max Editing” value (TTR [2]) was 77.39 and the “Max Editing” value (TTR [3]) was 56.52.

B2: G000499: TTR sgRNA modified sequence, Human, SEQ ID No. 106; guide sequence of CR005303 (nucleic acid)
guide: mU*mG*mA*rArUrCrCrArArGrUrGrUrCrCrUrCrUrGrArGrUrUrUrUrArGrAmGmCmUmAmGmAmAmAmUmAmGmCrArArGrUrUrArArArArUrArArGrGrCrUrArGrUrCrCrGrUrUrArUrCrAmAmCmUmUmGmAmAmAmAmAmGmUmGmGmCmAmCmCmGmAmGmUmCmGmGmUmGmCmU*mU*mU*mU
B2 was tested, and the “Avg % Deletion” value (TTR [1]) was 1.17%, the “Avg % Edit” value (TTR [1]) was 66.40% and the “Avg % Insert” value (TTR [1]) was 65.23%. For the same molecule, the “Max Editing” value (TTR [2]) was 96.31, the “Max Editing” value (TTR [3]) was 74.94 and the “Liver editing, dose response” value (human TTR sequence; Cas9 mRNA (SEQ ID NO: 1) 1:1 by weight to guide, FIG. 27A) was “A dose response for both editing and serum TTR levels was evident”. For the same molecule, the “Liver editing, dose response” value (human TTR sequence; Cas9 mRNA (SEQ ID NO: 1) 1:2 by weight to guide, FIG. 28A) was “A dose response for both editing and serum TTR levels was evident”.

B3: G000484: TTR sgRNA modified sequence, Human, SEQ ID No. 91; guide sequence of CR003367 (nucleic acid)
guide: mA*mG*mA*rCrArCrCrArArArUrCrUrUrArCrUrGrGrArGrUrUrUrUrArGrAmGmCmUmAmGmAmAmAmUmAmGmCrArArGrUrUrArArArArUrArArGrGrCrUrArGrUrCrCrGrUrUrArUrCrAmAmCmUmUmGmAmAmAmAmAmGmUmGmGmCmAmCmCmGmAmGmUmCmGmGmUmGmCmU*mU*mU*mU
With B3 the “Avg % Deletion” value (TTR [1]) was 33.83%, the “Avg % Edit” value (TTR [1]) was 62.97% and the “Avg % Insert” value (TTR [1]) was 29.23%. For the same molecule, the “Max Editing” value (TTR [2]) was 94.14 and the “Max Editing” value (TTR [3]) was 0.22.

B4: G000572: TTR sgRNA modified sequence, Human, SEQ ID No. 113; guide sequence of CR003385 (nucleic acid)
guide: mC*mC*mC*rCrUrArCrUrCrCrUrArUrUrCrCrArCrCrArGrUrUrUrUrArGrAmGmCmUmAmGmAmAmAmUmAmGmCrArArGrUrUrArArArArUrArArGrGrCrUrArGrUrCrCrGrUrUrArUrCrAmAmCmUmUmGmAmAmAmAmAmGmUmGmGmCmAmCmCmGmAmGmUmCmGmGmUmGmCmU*mU*mU*mU
With B4 the “Max Editing” value (TTR [2]) was 97.94 and the “Max Editing” value (TTR [3]) was 100.31.

B5: G000494: TTR sgRNA modified sequence, Human, SEQ ID No. 101; guide sequence of CR003360 (nucleic acid)
guide: mG*mU*mG*rArGrUrCrUrGrGrArGrArGrCrUrGrCrArUrGrUrUrUrUrArGrAmGmCmUmAmGmAmAmAmUmAmGmCrArArGrUrUrArArArArUrArArGrGrCrUrArGrUrCrCrGrUrUrArUrCrAmAmCmUmUmGmAmAmAmAmAmGmUmGmGmCmAmCmCmGmAmGmUmCmGmGmUmGmCmU*mU*mU*mU
In the case of B5, the “Avg % Deletion” value (TTR [1]) is reported as 0.77%, the “Avg % Edit” value (TTR [1]) is reported as 62.23% and the “Avg % Insert” value (TTR [1]) is reported as 61.47%. For the same molecule, the “Max Editing” value (TTR [2]) was 75.70 and the “Max Editing” value (TTR [3]) was 60.84.
